Reference: IntAct's records for PubMed 29040270

B1: Rho-related GTP-binding protein RhoE (Homo sapiens), P61587 (parent)
chain: MKERRASQKLSSKSIMDPNQNVKCKIVVVGDSQCGKTALLHVFAKDCFPENYVPTVFENYTASFEIDTQRIELSLWDTSGSPYYDNVRPLSYPDSDAVLICFDISRPETLDSVLKKWKGEIQEFCPNTKMLLVGCKSDLRTDVSTLVELSNHRQTPVSYDQGANMAKQIGAATYIECSALQSENSVRDIFHVATLACVNKTNKNVKRNKSQRATKRISHMPSRPELSAVATDLRKDKAKSCTVM

Columns and labels:
[1] = variants of: B1; conditions: with plxb1_human PLXNB1, O43157
[2] = variants of: B1; conditions: with plxb2_human PLXNB2, O15031
Sequence of plxb2_human PLXNB2, O15031 (O15031 whole entry): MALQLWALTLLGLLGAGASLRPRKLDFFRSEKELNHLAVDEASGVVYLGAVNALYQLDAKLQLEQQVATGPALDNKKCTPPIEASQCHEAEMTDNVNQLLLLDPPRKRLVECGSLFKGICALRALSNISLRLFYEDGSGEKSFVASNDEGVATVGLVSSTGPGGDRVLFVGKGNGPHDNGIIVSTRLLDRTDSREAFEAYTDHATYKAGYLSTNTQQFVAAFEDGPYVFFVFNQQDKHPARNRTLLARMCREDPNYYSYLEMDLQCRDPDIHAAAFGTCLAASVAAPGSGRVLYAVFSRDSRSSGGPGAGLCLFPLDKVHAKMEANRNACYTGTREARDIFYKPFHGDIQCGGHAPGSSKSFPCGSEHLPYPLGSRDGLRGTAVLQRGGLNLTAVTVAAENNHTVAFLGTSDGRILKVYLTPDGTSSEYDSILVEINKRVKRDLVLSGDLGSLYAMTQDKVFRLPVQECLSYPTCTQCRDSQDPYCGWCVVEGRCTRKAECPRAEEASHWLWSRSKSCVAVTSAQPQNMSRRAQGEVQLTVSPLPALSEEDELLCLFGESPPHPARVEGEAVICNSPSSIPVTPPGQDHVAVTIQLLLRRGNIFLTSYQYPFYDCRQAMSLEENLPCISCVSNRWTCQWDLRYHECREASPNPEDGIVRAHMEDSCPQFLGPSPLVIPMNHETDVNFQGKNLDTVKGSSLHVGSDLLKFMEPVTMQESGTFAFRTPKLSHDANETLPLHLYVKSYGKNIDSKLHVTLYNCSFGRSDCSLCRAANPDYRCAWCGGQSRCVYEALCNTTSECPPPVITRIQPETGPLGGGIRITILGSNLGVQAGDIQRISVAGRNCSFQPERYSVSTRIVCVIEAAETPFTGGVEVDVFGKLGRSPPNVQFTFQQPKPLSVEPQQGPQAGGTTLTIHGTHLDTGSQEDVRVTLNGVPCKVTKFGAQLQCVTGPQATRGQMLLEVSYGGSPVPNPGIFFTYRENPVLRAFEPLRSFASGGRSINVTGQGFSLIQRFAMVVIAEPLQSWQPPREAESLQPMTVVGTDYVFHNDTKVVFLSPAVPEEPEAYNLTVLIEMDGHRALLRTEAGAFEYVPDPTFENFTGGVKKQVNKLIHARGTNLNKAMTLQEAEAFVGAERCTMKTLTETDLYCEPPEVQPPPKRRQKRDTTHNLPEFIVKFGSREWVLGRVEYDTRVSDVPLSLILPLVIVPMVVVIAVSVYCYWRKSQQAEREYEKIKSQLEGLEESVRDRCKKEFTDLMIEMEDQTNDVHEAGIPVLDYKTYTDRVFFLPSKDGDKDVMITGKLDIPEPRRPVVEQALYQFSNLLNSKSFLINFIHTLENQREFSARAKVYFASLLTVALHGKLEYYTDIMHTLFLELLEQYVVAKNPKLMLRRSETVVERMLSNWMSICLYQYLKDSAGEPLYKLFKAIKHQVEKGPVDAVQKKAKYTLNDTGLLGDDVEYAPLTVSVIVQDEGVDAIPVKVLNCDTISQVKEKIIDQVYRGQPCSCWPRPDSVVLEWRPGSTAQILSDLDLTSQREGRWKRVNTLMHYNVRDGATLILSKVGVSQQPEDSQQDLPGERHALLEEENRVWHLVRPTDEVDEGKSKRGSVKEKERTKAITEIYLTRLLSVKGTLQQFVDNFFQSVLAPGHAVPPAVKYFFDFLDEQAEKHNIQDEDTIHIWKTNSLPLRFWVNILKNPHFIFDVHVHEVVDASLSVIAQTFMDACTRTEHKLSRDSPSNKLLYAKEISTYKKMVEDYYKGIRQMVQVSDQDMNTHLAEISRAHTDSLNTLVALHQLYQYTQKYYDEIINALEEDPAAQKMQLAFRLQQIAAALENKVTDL

Sequence of plxb1_human PLXNB1, O43157 (O43157 whole entry): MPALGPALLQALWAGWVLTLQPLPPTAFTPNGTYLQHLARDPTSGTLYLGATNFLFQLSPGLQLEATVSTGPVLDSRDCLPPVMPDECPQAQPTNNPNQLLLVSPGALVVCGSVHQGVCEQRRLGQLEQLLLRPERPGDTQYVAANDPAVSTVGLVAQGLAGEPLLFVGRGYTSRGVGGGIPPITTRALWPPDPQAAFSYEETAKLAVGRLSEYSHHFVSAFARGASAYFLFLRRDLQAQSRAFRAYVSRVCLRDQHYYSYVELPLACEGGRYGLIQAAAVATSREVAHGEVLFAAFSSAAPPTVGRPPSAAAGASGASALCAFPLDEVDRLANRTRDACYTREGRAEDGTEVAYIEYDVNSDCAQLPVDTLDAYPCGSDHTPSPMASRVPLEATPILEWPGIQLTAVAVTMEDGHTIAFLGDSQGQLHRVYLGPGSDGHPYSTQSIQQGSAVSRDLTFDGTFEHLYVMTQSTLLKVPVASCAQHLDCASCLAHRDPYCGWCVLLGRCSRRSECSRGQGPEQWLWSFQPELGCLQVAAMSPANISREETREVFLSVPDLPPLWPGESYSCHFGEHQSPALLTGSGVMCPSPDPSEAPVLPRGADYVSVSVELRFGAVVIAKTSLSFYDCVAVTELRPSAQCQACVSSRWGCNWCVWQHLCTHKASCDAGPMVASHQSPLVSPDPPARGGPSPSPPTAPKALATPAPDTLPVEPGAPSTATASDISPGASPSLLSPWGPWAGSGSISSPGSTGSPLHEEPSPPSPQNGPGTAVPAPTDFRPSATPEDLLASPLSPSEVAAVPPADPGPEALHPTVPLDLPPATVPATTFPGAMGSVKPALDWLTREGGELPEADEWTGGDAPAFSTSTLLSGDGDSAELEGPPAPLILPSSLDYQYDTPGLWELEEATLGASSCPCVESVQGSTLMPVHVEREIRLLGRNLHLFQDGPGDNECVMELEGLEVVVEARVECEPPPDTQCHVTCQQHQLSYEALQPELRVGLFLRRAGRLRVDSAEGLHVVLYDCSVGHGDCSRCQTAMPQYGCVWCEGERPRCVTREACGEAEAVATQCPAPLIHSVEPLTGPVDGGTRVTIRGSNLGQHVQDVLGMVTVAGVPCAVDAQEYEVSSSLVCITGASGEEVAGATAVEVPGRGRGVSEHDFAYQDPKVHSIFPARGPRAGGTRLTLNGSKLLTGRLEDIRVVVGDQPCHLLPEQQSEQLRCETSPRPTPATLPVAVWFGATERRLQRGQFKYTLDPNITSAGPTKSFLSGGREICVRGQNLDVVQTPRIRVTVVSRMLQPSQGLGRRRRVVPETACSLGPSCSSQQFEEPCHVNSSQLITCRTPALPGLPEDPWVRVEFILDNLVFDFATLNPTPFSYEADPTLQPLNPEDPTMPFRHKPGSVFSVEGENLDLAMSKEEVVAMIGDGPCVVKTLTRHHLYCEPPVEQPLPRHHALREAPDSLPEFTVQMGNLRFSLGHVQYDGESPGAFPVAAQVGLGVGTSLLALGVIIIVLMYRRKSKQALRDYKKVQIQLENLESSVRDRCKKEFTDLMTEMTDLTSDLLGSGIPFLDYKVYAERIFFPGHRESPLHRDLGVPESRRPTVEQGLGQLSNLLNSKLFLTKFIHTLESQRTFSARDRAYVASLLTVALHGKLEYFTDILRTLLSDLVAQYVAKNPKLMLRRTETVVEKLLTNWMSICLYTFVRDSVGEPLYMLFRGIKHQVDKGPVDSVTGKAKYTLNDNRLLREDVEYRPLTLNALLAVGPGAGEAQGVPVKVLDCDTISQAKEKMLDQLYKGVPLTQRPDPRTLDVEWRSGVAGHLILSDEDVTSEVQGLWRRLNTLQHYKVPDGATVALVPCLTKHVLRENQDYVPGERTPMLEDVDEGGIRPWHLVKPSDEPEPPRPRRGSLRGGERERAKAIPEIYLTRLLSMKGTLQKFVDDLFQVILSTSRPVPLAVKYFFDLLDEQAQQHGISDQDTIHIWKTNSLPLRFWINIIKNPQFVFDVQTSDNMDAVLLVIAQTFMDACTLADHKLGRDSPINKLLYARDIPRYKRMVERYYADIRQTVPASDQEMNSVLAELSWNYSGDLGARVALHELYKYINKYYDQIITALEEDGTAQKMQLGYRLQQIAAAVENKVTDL

MKERRASQKLSSKSIMDPNQNVKCKIVVVGDSQCGKTALLHVFAKDCFPENYVPTVFENYTASFEIDTQRIELSLWDTSGSPYYDNVRPLSYPDSDAVLICFDISRPETLDSVLKKWKGEIQEYCPNTKMLLVGCKSDLRTDVSTLVELSNHRQTPVSYDQGANMAKQIGAATYIECSALQSENSVRDIFHVATLACVNKTNKNVKRNKSQRATKRISHMPSRPELSAVATDLRKDKAKSCTVM [F124Y]
effect of a mutation on the interaction [1]: with no effect | effect of a mutation on the interaction [2]: with no effect

MKERRASQKLSSKSIMDPNQNVKCKIVVVGDSQCGKTALLHVFAKDCFPENYVPTVFENYTASFEIDTQRIELSLWDTSGSPYYDRVRPLSYPDSDAVLICFDISRPETLDSVLKKWKGEIQEFCPNTKMLLVGCKSDLRTDVSTLVELSNHRQTPVSYDQGANMAKQIGAATYIECSALQSENSVRDIFHVATLACVNKTNKNVKRNKSQRATKRISHMPSRPELSAVATDLRKDKAKSCTVM [N86R]
effect of a mutation on the interaction [1]: with no effect | effect of a mutation on the interaction [2]: with no effect

MKERRASQKLSSKSIMDPNQNVKCKIVVVGDSQCGKTALLHVFAKDCFPENYVPTVFENATASFEIDTQRIELSLWDTSGSPYYDNVRPLSYPDSDAVLICFDISRPETLDSVLKKWKGEIQEFCPNTKMLLVGCKSDLRTDVSTLVELSNHRQTPVSYDQGANMAKQIGAATYIECSALQSENSVRDIFHVATLACVNKTNKNVKRNKSQRATKRISHMPSRPELSAVATDLRKDKAKSCTVM [Y60A]
effect of a mutation on the interaction [1]: with no effect | effect of a mutation on the interaction [2]: with no effect

MKERRASQKLSSKSIMDPNQNVKCKIVVVGDSQCGKTALLHVFAKDCFPENYVPTVFENYTASFEIDTQRIELSLWDTSGSPYYDNVRPRSYPDSDAVLICFDISRPETLDSVLKKWKGEIQEFCPNTKMLLVGCKSDLRTDVSTLVELSNHRQTPVSYDQGANMAKQIGAATYIECSALQSENSVRDIFHVATLACVNKTNKNVKRNKSQRATKRISHMPSRPELSAVATDLRKDKAKSCTVM [L90R]
effect of a mutation on the interaction [1]: disrupting interaction strength | effect of a mutation on the interaction [2]: disrupting interaction strength

MKERRASQKLSSKSIMDPNQNVKCKIVVVGDSQCGKTALLHVFAKDCFPENYVPTVFENYTASFEIDTQRIELSLWDTSGSPYYDNRRPLSYPDSDAVLICFDISRPETLDSVLKKWKGEIQEFCPNTKMLLVGCKSDLRTDVSTLVELSNHRQTPVSYDQGANMAKQIGAATYIECSALQSENSVRDIFHVATLACVNKTNKNVKRNKSQRATKRISHMPSRPELSAVATDLRKDKAKSCTVM [V87R]
effect of a mutation on the interaction [1]: disrupting interaction strength | effect of a mutation on the interaction [2]: disrupting interaction strength
